From article PMC3039130 (Structure (London, England : 1993), 2011)

Biological target: T1, BirA-tagged, biotinylated mouse JAML ectodomain (Mus musculus, biotin on the BirA-tag (by BirA biotin protein ligase))
T1 chain: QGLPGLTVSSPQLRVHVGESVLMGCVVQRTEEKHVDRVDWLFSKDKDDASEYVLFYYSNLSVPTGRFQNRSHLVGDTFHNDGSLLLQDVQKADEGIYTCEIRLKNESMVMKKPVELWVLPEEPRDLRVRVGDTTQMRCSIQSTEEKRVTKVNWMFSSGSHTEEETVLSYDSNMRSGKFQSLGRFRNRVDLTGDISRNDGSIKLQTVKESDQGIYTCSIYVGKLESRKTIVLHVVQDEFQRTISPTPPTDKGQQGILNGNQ
Assay: SPR

B1: HL4E10 Fab (fragment of the hamster anti-JAML IgG (λ) HL4E10) (Fab, V domains shown)
VH: QVQLKESGPGLLQPSQTLSLTCTVSGISLSDYGVHWVRQAPGKGLEWMGIIGHAGGTDYNSNLKSRVSISRDTSKSQVFLKLNSLQQEDTAMYFCARHFYTYFDVWGQGIQVTVSS
VL: SYTLTQPPLVSVALGQKATITCSGDKLSDVYVHWYQQKAGQAPVLVIYEDNRRPSGIPDHFSGSNSGNMATLTISKAQAGDEADYYCQSWDGTNSAWVFGSGTKVTVL
Kd: ~8 nM
koff: ~0.001 s⁻¹
